According to patent US20250043302A1, “MUTATED HYDROXYPHENYLPYRUVATE DIOXYGENASE POLYPEPTIDE, AND CODING GENE AND USE THEREOF” (BEIJING DABEINONG BIOTECHNOLOGY CO., LTD., priority 2021, published 2025):

What was measured:
Format in all cases: in vivo
[1] = test system: Arabidopsis thaliana T1 plants; assay: Mesotrione tolerance of transgenic Arabidopsis thaliana T1 plants (spray, bleached leaf area grade, damage score); design: Scores: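 damage score 0-100 computed as Σ(N×S)/(T×M)×100 over grades 0-3 with higher meaning more damage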; details: Table 12; for Classification and statistics of the grade of pesticide damage Grade 0: number of plants at grade 0; for Classification and statistics of the grade of pesticide damage Grade 1: number of plants at grade 1; for Classification and statistics of the grade of pesticide damage Grade 2: number of plants at grade 2; for Classification and statistics of the grade of pesticide damage Grade 3: number of plants at grade 3; for Scores: pesticide damage score
In short: (§1)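 Damage graded 0–3 from the proportion of bleached leaf area 7 days after spraying. Plants were glufosinate-selected T1 lines, 18 days after sowing, plus vector and wild-type controls. Rates: mesotrione 52.5–420, isoxaflutole 35–280, topramezone 25–200 g ai/ha, with water (0×).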

[2] = test system: Arabidopsis thaliana T1 plants; assay: Topramezone tolerance of transgenic Arabidopsis thaliana T1 plants (spray, bleached leaf area grade, damage score); details: Table 10; for Classification and statistics of the grade of pesticide damage Grade 0: number of plants at grade 0; for Classification and statistics of the grade of pesticide damage Grade 1: number of plants at grade 1; for Classification and statistics of the grade of pesticide damage Grade 2: number of plants at grade 2; for Classification and statistics of the grade of pesticide damage Grade 3: number of plants at grade 3; for Scores: pesticide damage score
In short: as §1

[3] = test system: Arabidopsis thaliana T1 plants; assay: Isoxaflutole tolerance of transgenic Arabidopsis thaliana T1 plants (spray, bleached leaf area grade, damage score); details: Table 11; for Classification and statistics of the grade of pesticide damage Grade 0: number of plants at grade 0; for Classification and statistics of the grade of pesticide damage Grade 1: number of plants at grade 1; for Classification and statistics of the grade of pesticide damage Grade 2: number of plants at grade 2; for Classification and statistics of the grade of pesticide damage Grade 3: number of plants at grade 3; for Scores: pesticide damage score;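 as to Scores: Weighted damage index from 0 to 100 where higher means more damage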
In short: as §1

B1: HPPDm-1-02: nucleotide sequence encoding Avena sativa HPPD with A107 deletion+F372A+F383W; vector DBN11780 (nucleic acid)
DNA: ATGCCACCTACTCCAGCTACAGCTACTGGTGCTGCTGCTGCTGCCGTTACTCCTGAGCACGCTGCCAGGTCATTCCCCAGGGTGGTTCGCGTGAACCCCAGATCTGATAGGTTCCCAGTTCTGAGCTTCCACCATGTTGAGCTGTGGTGCGCTGATGCTGCTTCTGCTGCTGGCAGGTTCTCTTTCGCTCTTGGTGCTCCACTCGCTGCTAGATCTGATCTGTCTACAGGAAATAGCGCTCATGCCTCACTCCTGCTTCGCTCAGGTGCTTTGGCCTTCCTCTTCACCGCTCCATATGCTCCCCCACCTCAGGAGGCTACTGCTGCTGCTACAGCCTCCATTCCAAGCTTCTCAGCTGATGCCGCTAGAACCTTCGCTGCTGCTCATGGACTTGCCGTGAGGTCTGTTGGTGTTCGCGTGGCTGATGCTGCTGAGGCTTTCAGAGTTTCCGTTGCCGGCGGAGCTAGGCCAGCTTTCGCTCCTGCTGATTTGGGACATGGTTTCGGCCTGGCTGAGGTTGAGCTTTACGGTGACGTGGTTCTCCGCTTCGTGTCTTACCCAGATGAGACTGACCTGCCTTTCCTTCCCGGCTTCGAGAGAGTTTCCTCTCCTGGTGCCGTGGATTACGGCCTGACAAGGTTCGACCACGTGGTTGGAAACGTTCCCGAGATGGCTCCAGTGATCGATTACATGAAGGGCTTCCTTGGATTCCATGAGTTCGCCGAGTTCACTGCTGAGGACGTGGGAACCACTGAGTCCGGTTTGAACTCTGTGGTTCTCGCCAACAATTCTGAGGCTGTTTTGCTCCCTCTGAATGAGCCTGTGCATGGAACCAAGAGGAGAAGCCAGATTCAAACTTACCTGGAGTACCACGGTGGCCCTGGAGTTCAGCATATCGCCCTTGCTTCTAATGATGTGTTGCGCACACTCAGAGAGATGCGCGCCAGAACCCCCATGGGAGGTTTCGAGTTCATGGCCCCACCACAGGCTAAGTACTACGAGGGCGTTAGAAGGATTGCTGGAGACGTGTTGAGCGAGGAGCAGATCAAGGAGTGCCAAGAGCTGGGTGTTCTTGTGGATAGGGATGACCAGGGCGTTCTGCTTCAAATTGCCACTAAGCCAGTGGGCGACCGCCCTACATTCTGGCTTGAGATGATTCAAAGAATCGGCTGCATGGAGAAGGATGAGGTTGGACAGGAGTACCAAAAGGGCGGATGCGGTGGCTTCGGAAAGGGTAACTTCAGCGAGTTGTTCAAGTCAATCGAGGACTACGAGAAGAGCCTCGAGGTGAAGCAGTCAGTGGTTGCCCAAAAGTCCTGA
modifications: HPPDm-1-02 Nucleotide Sequence
notes: vector DBN11780
[1]; mesotrione 210 g ai/ha (2×)
  Resistance evaluation: Highly resistant
  Classification and statistics of the grade of pesticide damage Grade 0: 16
  Classification and statistics of the grade of pesticide damage Grade 1: 0
  Classification and statistics of the grade of pesticide damage Grade 2: 0
  Classification and statistics of the grade of pesticide damage Grade 3: 0
  Scores: 0
[1]; mesotrione 420 g ai/ha (4×)
  Resistance evaluation: Highly resistant
  Classification and statistics of the grade of pesticide damage Grade 0: 15
  Classification and statistics of the grade of pesticide damage Grade 1: 1
  Classification and statistics of the grade of pesticide damage Grade 2: 0
  Classification and statistics of the grade of pesticide damage Grade 3: 0
  Scores: 2
[2]; topramezone 100 g ai/ha (4×)
  Resistance evaluation: Highly resistant
  Classification and statistics of the grade of pesticide damage Grade 0: 16
  Classification and statistics of the grade of pesticide damage Grade 1: 0
  Classification and statistics of the grade of pesticide damage Grade 2: 0
  Classification and statistics of the grade of pesticide damage Grade 3: 0
  Scores: 0
[2]; topramezone 200 g ai/ha (8×)
  Resistance evaluation: Highly resistant
  Classification and statistics of the grade of pesticide damage Grade 0: 16
  Classification and statistics of the grade of pesticide damage Grade 1: 0
  Classification and statistics of the grade of pesticide damage Grade 2: 0
  Classification and statistics of the grade of pesticide damage Grade 3: 0
  Scores: 0
[3]; isoxaflutole 140 g ai/ha (2×)
  Resistance evaluation: Highly resistant
  Classification and statistics of the grade of pesticide damage Grade 0: 16
  Classification and statistics of the grade of pesticide damage Grade 1: 0
  Classification and statistics of the grade of pesticide damage Grade 2: 0
  Classification and statistics of the grade of pesticide damage Grade 3: 0
  Scores: 0
[3]; isoxaflutole 280 g ai/ha (4×)
  Resistance evaluation: Highly resistant
  Classification and statistics of the grade of pesticide damage Grade 0: 12
  Classification and statistics of the grade of pesticide damage Grade 1: 4
  Classification and statistics of the grade of pesticide damage Grade 2: 0
  Classification and statistics of the grade of pesticide damage Grade 3: 0
  Scores: 8

B2: HPPDm-2-02: nucleotide sequence encoding Avena sativa HPPD with A111T+F372A+F383W; vector DBN11783 (nucleic acid)
DNA: ATGCCACCTACTCCAGCTACAGCTACTGGTGCTGCTGCTGCTGCCGTTACTCCTGAGCACGCTGCCAGGTCATTCCCCAGGGTGGTTCGCGTGAACCCCAGATCTGATAGGTTCCCAGTTCTGAGCTTCCACCATGTTGAGCTGTGGTGCGCTGATGCTGCTTCTGCTGCTGGCAGGTTCTCTTTCGCTCTTGGTGCTCCACTCGCTGCTAGATCTGATCTGTCTACAGGAAATAGCGCTCATGCCTCACTCCTGCTTCGCTCAGGTGCTTTGGCCTTCCTCTTCACCGCTCCATATGCTCCCCCACCTCAGGAGGCTGCTACTGCTGCTACTACAGCCTCCATTCCAAGCTTCTCAGCTGATGCCGCTAGAACCTTCGCTGCTGCTCATGGACTTGCCGTGAGGTCTGTTGGTGTTCGCGTGGCTGATGCTGCTGAGGCTTTCAGAGTTTCCGTTGCCGGCGGAGCTAGGCCAGCTTTCGCTCCTGCTGATTTGGGACATGGTTTCGGCCTGGCTGAGGTTGAGCTTTACGGTGACGTGGTTCTCCGCTTCGTGTCTTACCCAGATGAGACTGACCTGCCTTTCCTTCCCGGCTTCGAGAGAGTTTCCTCTCCTGGTGCCGTGGATTACGGCCTGACAAGGTTCGACCACGTGGTTGGAAACGTTCCCGAGATGGCTCCAGTGATCGATTACATGAAGGGCTTCCTTGGATTCCATGAGTTCGCCGAGTTCACTGCTGAGGACGTGGGAACCACTGAGTCCGGTTTGAACTCTGTGGTTCTCGCCAACAATTCTGAGGCTGTTTTGCTCCCTCTGAATGAGCCTGTGCATGGAACCAAGAGGAGAAGCCAGATTCAAACTTACCTGGAGTACCACGGTGGCCCTGGAGTTCAGCATATCGCCCTTGCTTCTAATGATGTGTTGCGCACACTCAGAGAGATGCGCGCCAGAACCCCCATGGGAGGTTTCGAGTTCATGGCCCCACCACAGGCTAAGTACTACGAGGGCGTTAGAAGGATTGCTGGAGACGTGTTGAGCGAGGAGCAGATCAAGGAGTGCCAAGAGCTGGGTGTTCTTGTGGATAGGGATGACCAGGGCGTTCTGCTTCAAATTGCCACTAAGCCAGTGGGCGACCGCCCTACATTCTGGCTTGAGATGATTCAAAGAATCGGCTGCATGGAGAAGGATGAGGTTGGACAGGAGTACCAAAAGGGCGGATGCGGTGGCTTCGGAAAGGGTAACTTCAGCGAGTTGTTCAAGTCAATCGAGGACTACGAGAAGAGCCTCGAGGTGAAGCAGTCAGTGGTTGCCCAAAAGTCCTGA
modifications: HPPDm-2-02 Nucleotide Sequence
notes: vector DBN11783
[1]; mesotrione 210 g ai/ha (2×)
  Resistance evaluation: Highly resistant
  Classification and statistics of the grade of pesticide damage Grade 0: 16
  Classification and statistics of the grade of pesticide damage Grade 1: 0
  Classification and statistics of the grade of pesticide damage Grade 2: 0
  Classification and statistics of the grade of pesticide damage Grade 3: 0
  Scores: 0
[1]; mesotrione 420 g ai/ha (4×)
  Resistance evaluation: Highly resistant
  Classification and statistics of the grade of pesticide damage Grade 0: 14
  Classification and statistics of the grade of pesticide damage Grade 1: 2
  Classification and statistics of the grade of pesticide damage Grade 2: 0
  Classification and statistics of the grade of pesticide damage Grade 3: 0
  Scores: 4
[2]; topramezone 100 g ai/ha (4×)
  Resistance evaluation: Highly resistant
  Classification and statistics of the grade of pesticide damage Grade 0: 16
  Classification and statistics of the grade of pesticide damage Grade 1: 0
  Classification and statistics of the grade of pesticide damage Grade 2: 0
  Classification and statistics of the grade of pesticide damage Grade 3: 0
  Scores: 0
[2]; topramezone 200 g ai/ha (8×)
  Resistance evaluation: Highly resistant
  Classification and statistics of the grade of pesticide damage Grade 0: 16
  Classification and statistics of the grade of pesticide damage Grade 1: 0
  Classification and statistics of the grade of pesticide damage Grade 2: 0
  Classification and statistics of the grade of pesticide damage Grade 3: 0
  Scores: 0
[3]; isoxaflutole 140 g ai/ha (2×)
  Resistance evaluation: Highly resistant
  Classification and statistics of the grade of pesticide damage Grade 0: 16
  Classification and statistics of the grade of pesticide damage Grade 1: 0
  Classification and statistics of the grade of pesticide damage Grade 2: 0
  Classification and statistics of the grade of pesticide damage Grade 3: 0
  Scores: 0
[3]; isoxaflutole 280 g ai/ha (4×)
  Resistance evaluation: Highly resistant
  Classification and statistics of the grade of pesticide damage Grade 0: 12
  Classification and statistics of the grade of pesticide damage Grade 1: 3
  Classification and statistics of the grade of pesticide damage Grade 2: 1
  Classification and statistics of the grade of pesticide damage Grade 3: 0
  Scores: 10
